For series [1], the target named is T1, rPruR (AraC/XylS family regulator) (Pseudomonas aeruginosa PAK) (UniProt Q9I5F8).
T1 sequence: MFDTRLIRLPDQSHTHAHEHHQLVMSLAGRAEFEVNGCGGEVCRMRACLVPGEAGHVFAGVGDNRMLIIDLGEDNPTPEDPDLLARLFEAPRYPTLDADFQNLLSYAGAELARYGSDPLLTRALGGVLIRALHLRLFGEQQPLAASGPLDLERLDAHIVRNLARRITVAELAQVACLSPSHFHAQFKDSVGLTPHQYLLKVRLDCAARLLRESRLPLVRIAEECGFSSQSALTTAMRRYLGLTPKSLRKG
As to the kind of experiment: EMSA. The conditions noted are these: 50 mM Tris pH 7.9, 50 mM NaCl, 0.5 mM EDTA, 10% glycerol, 1% NP-40, 25 C, 10 min; 50 ng DNA, 2 ug rPruR in 20 ul; 8% native PAGE in TBE on ice (EMSA) …. Background: A gel shift assay detects complexes by their altered migration in electrophoresis.

Series [2] deals with T2, rPruR (AraC/XylS family regulator) (Pseudomonas aeruginosa PAK, UniProt Q9I5F8 1-250).
T2 sequence: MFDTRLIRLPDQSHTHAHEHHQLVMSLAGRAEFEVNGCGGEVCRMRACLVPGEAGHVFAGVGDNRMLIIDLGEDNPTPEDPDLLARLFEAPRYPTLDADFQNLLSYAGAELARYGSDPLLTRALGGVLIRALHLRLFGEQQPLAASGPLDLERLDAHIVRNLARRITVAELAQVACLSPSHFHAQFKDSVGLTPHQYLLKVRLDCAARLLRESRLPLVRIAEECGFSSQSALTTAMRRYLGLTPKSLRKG
As to the kind of experiment: EMSA; 50 mM Tris pH 7.9, 50 mM NaCl, 0.5 mM EDTA, 10% glycerol, 1% NP-40, 25 C, 10 min; 50 ng DNA, 2 ug rPruR in 20 ul; 8% native PAGE in TBE on ice (EMSA); footprint 300 ng probe, 0.09 U DNase I, 25 C 5 min. The conditions noted are these: protein: recombinant; tags: His tag (pET-28a(+)); blunt.

On to “CCCTCTCGCAGCCACTACATTCCGCTATCCGCTGGTGCCTCGCGCCGGCGGAATGGGCCTGACCCATACTGATCCGTATTCCCGCGCCACAGGACGTGCCGCGCCGCCGGCACAACCCGCCGGCGGCGGTGCCCCGGGCAATGGACGCCTGGCCGGACTTCTTTCAATAACAATGGCTCCACAAGAGGAGGGCGTG (double strand) [putA promoter F3]”, for which the binding result in series [1] is given as “no binding”.

“CTTTCCCGTTCCTCTTCGCCGGCAGGCATGCGGACATTGCCGCTGCACGTCGGCACGACGCCATGCAGAGTGGCTACGCGGGTCTACCGACACAAAAAGAAATAATATAACATCCCAATAAATACGCCGAT (double strand) [putA promoter F5]”: the binding result in series [1] is given as “no binding”.

B1: putA promoter F6 (dsDNA)
DNA 1: TTCCGCAGCCAGGAGTTTTCCGCAAAAACTCCAGAGTCTTTCGCAAGAATCGC
DNA 2: GCGATTCTTGCGAAAGACTCTGGAGTTTTTGCGGAAAACTCCTGGCTGCGGAA
As for B1, the binding result in series [2] was “binds”.

The values are drawn from paper PMC5879082, “PutA Is Required for Virulence and Regulated by PruR in Pseudomonas aeruginosa”.
